Results published in paper doi:10.1101/2022.05.13.491857.

Target: GST-Rac1^QP (UniProt P63000)
Assay: pull-down

## WRC^Y967A (from UniProt Q7L576 1-1253; Q9Y2A7 1-1128; Q92558 1-230; Q9NYB9 1-158; Q8WUW1 1-75) (complex)
  Kd: 2 µM
